Source: patent US20120178796A1 (published 2012)

B1: SIRT1-FL (endogenous full length SIRT1) (enzyme, human, UniProt Q96EB6 1-747, looked up)
chain: MADEAALALQPGGSPSAAGADREAASSPAGEPLRKRPRRDGPGLERSPGEPGGAAPEREVPAAARGCPGAAAAALWREAEAEAAAAGGEQEAQATAAAGEGDNGPGLQGPSREPPLADNLYDEDDDDEGEEEEEAAAAAIGYRDNLLFGDEIITNGFHSCESDEEDRASHASSSDWTPRPRIGPYTFVQQHLMIGTDPRTILKDLLPETIPPPELDDMTLWQIVINILSEPPKRKKRKDINTIEDAVKLLQECKKIIVLTGAGVSVSCGIPDFRSRDGIYARLAVDFPDLPDPQAMFDIEYFRKDPRPFFKFAKEIYPGQFQPSLCHKFIALSDKEGKLLRNYTQNIDTLEQVAGIQRIIQCHGSFATASCLICKYKVDCEAVRGDIFNQVVPRCPRCPADEPLAIMKPEIVFFGENLPEQFHRAMKYDKDEVDLLIVIGSSLKVRPVALIPSSIPHEVPQILINREPLPHLHFDVELLGDCDVIINELCHRLGGEYAKLCCNPVKLSEITEKPPRTQKELAYLSELPPTPLHVSEDSSSPERTSPPDSSVIVTLLDQAAKSNDDLDVSESKGCMEEKPQEVQTSRNVESIAEQMENPDLKNVGSSTGEKNERTSVAGTVRKCWPNRVAKEQISRRLDGNQYLFLPPNRYIFHGAEVYSDSEDDVLSSSSCGSNSDSGTCQSPSLEEPMEDESEIEEFYNGLEDEPDVPERAGGAGFGTDGDDQEAINEAISVKQEVTDMNYPSNKS
B2: Myc-tagged SIRT1-ΔExon8 (SIRT1 Δ8 tagged at the C-terminus with c-Myc and 6x His) (enzyme)
chain: ADEAALALQPGGSPSAAGADREAASSPAGEPLRKRPRRDGPGLERSPGEPGGAAPEREVPAAARGCPGAAAAALWREAEAEAAAAGGEQEAQATAAAGEGDNGPGLQGPSREPPLADNLYDEDDDDEGEEEEEAAAAAIGYRDNLLFGDEIITNGFHSCESDEEDRASHASSSDWTPRPRIGPYTFVQQHLMIGTDPRTILKDLLPETIPPPELDDMTLWQIVINILSEPPKRKKRKDINTIEDAVKLLQECKKIIVLTGAGVSVSCGIPDFRSRDGIYARLAVDFPDLPDPQAMFDIEYFRKDPRPFFKFAKEIYPGQFQPSLCHKFIALSDKEGKLLRNYTQNIDTLEQVAGIQRIIQCHGSFATASCLICKYKVDCEAVRGDIFNQVVPRCPRCPADEPLAIMKPEIVFFGENLPEQFHRAMKYDKDEVDLLIVIGSSLKVRPVALIPSNQYLFLPPNRYIFHGAEVYSDSEDDVLSSSSCGSNSDSGTCQSPSLEEPMEDESEIEEFYNGLEDEPDVPERAGGAGFGTDGDDQEAINEAISVKQEVTDMNYPSNKS
notes: Transiently expressed in HCT116 cells, about 95 kDa; Found phosphorylated at S27 and S47 in lysates; also called SIRT1-delta exon 8; SIRT1 D8; not shown: C-terminal c-Myc and 6x His tags
B3: Flag-tagged AROS (other, UniProt Q86WX3 1-136, looked up, not shown: small tags and cut ends)
chain: MSAALLRRGLELLAASEAPRDPPGQAKPRGAPVKRPRKTKAIQAQKLRNSAKGKVPKSALDEYRKRECRDHLRVNLKFLTRTRSTVAESVSQQILRQNRGRKACDRPVAKTKKKKAEGTVFTEEDFQKFQQEYFGS
notes: its order in the chain is arbitrary
B4: Myc-His-SIRT1 Δ2-9 (MH-SIRT1 Δ2-9) (other, not shown: small tags and cut ends)
chain: MADEAALALQPGGSPSAAGADREAASSPAGEPLRKRPRRDGPGLERSPGEPGGAAPEREVPAAARGCPGAAAAALWREAEAEAAAAGGEQEAQATAAAGEGDNGPGLQGPSREPPLADNLYDEDDDDEGEEEEEAAAAAIGYRDNLLFVLVAVTVIVGHARVQV
notes: Expressed in HCT116 p53+/+ cells from pcDNA3.1; Serine 47 found phosphorylated; also called exogenous SIRT1 Δ2-9

Key:
[1] = biological target: T1, p53 (endogenous, HCT116 p53+/+ cells) (human, UniProt P04637 1-393); experiment: cell-based or functional assay
[2] = biological target: B1; experiment: immunoprecipitation with anti-c-Myc 9E10 from HCT116 lysates, Western blot with H300 anti-SIRT1
Procedure: (§1) SIRT1-ΔExon8 was exogenously expressed in HCT116 cells and immuno-precipitated. […] SIRT1-ΔExon8 and Flag-tagged AROS were exogenously expressed in HCT116 cells, and the Flag epitope was immuno-precipitated. In the eluate, AROS was detected by probing with an anti-AROS antibody (Methods), while the interaction with SIRT1-ΔExon8 was probed with anti-c-Myc antibody (9E10, Santa Cruz). C. […] SIRT1-ΔExon8 was exogenously expressed in HCT116 cells and cells were harvested 24 h post-transfection. Cell lysates were immuno-precipitated with anti-c-Myc antibody (9E10, Santa Cruz). Western-blotting was performed with a C-terminal anti-SIRT1 antibody (residues 448-747, H300, Santa Cruz) which detects both endogenous SIRT1-FL and SIRT1-ΔExon8 (see: FIG. 2a). * indicates a non-specific band;

[3] = biological target: T2, DBC-1 (endogenous, HCT116 cells) (human, UniProt Q8N163 1-923); experiment: immunoprecipitation of exogenous SIRT1-ΔExon8 from HCT116 cells, eluate probed with anti-DBC-1
T2 construct: Endogenous protein in cell lysate, probed with anti-DBC-1; also called endogenous DBC-1
Procedure: as §1

[4] = biological target: B2; experiment: pull-down / co-immunoprecipitation from HCT116 cells
Procedure: as §1

[5] = biological target: T1, p53 (endogenous, HCT116 p53+/+ cells); experiment: immunoprecipitation of exogenous SIRT1 Δ2-9 with His antibody, blotted with p53 antibody

T1 sequence (P04637 whole entry): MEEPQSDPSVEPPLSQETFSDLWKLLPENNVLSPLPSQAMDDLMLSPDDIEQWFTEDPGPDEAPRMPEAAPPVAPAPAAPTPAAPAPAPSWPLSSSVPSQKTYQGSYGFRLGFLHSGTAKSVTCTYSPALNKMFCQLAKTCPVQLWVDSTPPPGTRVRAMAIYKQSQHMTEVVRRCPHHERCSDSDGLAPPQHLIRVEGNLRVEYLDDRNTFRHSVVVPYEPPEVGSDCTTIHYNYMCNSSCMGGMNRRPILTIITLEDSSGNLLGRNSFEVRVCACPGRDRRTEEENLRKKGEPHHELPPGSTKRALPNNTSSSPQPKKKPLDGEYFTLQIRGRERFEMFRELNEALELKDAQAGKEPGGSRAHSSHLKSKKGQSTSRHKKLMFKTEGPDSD
T2 sequence (Q8N163 whole entry): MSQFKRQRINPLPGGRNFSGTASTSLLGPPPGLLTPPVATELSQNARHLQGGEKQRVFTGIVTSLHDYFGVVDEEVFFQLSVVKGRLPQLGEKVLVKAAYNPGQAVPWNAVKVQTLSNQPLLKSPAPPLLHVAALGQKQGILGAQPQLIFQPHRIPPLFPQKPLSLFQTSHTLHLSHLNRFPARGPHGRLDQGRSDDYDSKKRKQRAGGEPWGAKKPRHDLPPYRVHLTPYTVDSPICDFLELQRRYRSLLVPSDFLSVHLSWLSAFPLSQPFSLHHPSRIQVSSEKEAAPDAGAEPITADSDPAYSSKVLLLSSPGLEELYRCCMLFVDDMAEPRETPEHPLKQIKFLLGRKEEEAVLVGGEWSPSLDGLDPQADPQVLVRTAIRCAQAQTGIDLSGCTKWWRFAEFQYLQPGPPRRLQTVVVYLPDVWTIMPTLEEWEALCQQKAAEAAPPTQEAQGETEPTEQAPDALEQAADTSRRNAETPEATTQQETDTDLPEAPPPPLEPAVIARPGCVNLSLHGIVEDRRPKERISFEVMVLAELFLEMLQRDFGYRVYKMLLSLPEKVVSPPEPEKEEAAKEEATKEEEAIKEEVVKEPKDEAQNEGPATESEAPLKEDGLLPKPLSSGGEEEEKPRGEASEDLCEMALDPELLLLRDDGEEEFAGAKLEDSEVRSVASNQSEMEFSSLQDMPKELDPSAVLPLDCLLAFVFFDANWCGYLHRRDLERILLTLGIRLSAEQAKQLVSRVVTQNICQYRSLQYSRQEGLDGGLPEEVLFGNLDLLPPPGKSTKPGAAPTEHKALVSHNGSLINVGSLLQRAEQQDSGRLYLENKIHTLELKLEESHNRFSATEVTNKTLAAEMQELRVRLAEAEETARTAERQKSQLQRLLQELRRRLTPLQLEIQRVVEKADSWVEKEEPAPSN

Binder: B1
- p53 acetylation levels following SIRT1 FL depletion (siRNA) under basal conditions in HCT116 cells, immunoblot [1]: > 50 fold

Binder: B2
- binding result [2]: no binding
- binding result [3]: no binding

Binder: B3
- binding result [4]: binds

Binder: B4
- binding result [5]: binds
